{"source": "patent US20250197923", "key": {"[1]": {"system": "BD009-SDpol-1 (synthetic construct)", "conditions": "RT-LAMP time at 10000 copies RNA; 7 mM MgSO4, 50 mM KCl, pH 8.8; 18.6 min at 10 copies"}, "[2]": {"system": "Bst 2.0", "conditions": "RT-LAMP time at 10000 copies RNA; 8 mM MgSO4, 50 mM KCl, pH 8.8; none at 100 copies"}}}
{"substance": "SARS-CoV-2 gene N LAMP target", "values": [{"measurement": "activity", "setting": "[1]", "value": 8.7, "unit": "min"}, {"measurement": "activity", "setting": "[2]", "value": 30, "unit": "min"}]}
